# In patent publication US12043671B2, “Antibodies targeting an amphiregulin-derived cell surface neo-epitope” (Gundersen Lutheran Medical Foundation, Inc., priority 2021, dated 2024):
# Non-standard residues stand in square brackets, D forms with d. Residues, ends and D or L forms follow the SMILES beside them. *: point of attachment. Dolaproine = CO[C@@H]([C@@H]1CCCN1)[C@@H](C)C(=O)O; Dil = CC[C@H](C)[C@H](NC)[C@@H](CC(=O)O)OC; X1 = C[C@@H](N*)[C@@H](O)c1ccccc1; NMeV = CN[C@H](C(=O)O)C(C)C
# B1: GMF-3E4: Rabbit monoclonal IgG specific to cleaved AREG; VH SEQ ID NO: 7, VL SEQ ID NO: 8 (antibody, V domains shown)
# VH: QSVKESEGRLVTPGTPLTLTCTVSGFSLSDYWMSWVRQAPGKGLEWIGIAGYSDNTYYASRAKGRFTISKTSTTVVLKITRPTTEDTATYFCVRDLYGVYSSGTTLWGPGTLVTVSS
# VL: AELVMTQTPSPVSAAVGGTVTISCQSSQSVYNNNRLAWFQQKPGQPPKLLIYYASTLASGVSSRFKGSGSGTQFTLIISDVVCDDAATYYCQGYYSGGITGFGGGTEVVVK
# modifications: 3E4 antibody, Heavy chain; 3E4 antibody, Light chain
# B2: 1A3-pHrodo (conjugate)
# VH: QSVKESEGRLVTPGTPLRLTCTVAGYSLSRYHMCWVRQAPGKGLEWIGMIGGSGRTDYASWAKGRFTISKTSTTVDLKITSPTTEDTATYFCSTVYTDSDGDFWGPGTLVTVSS
# VL: AELDMTQTPSSKSVPVGGTVTINCQASESVYSNDRLAWFQQKPGQPPKLLIYYASTLASGVPSRFKGSGSGTQFTLTISDLECADAATYYCQSCYDMSSYGVAFGGGTELEIL
# B3: GMF-3A3: Rabbit monoclonal IgG specific to cleaved AREG; VH SEQ ID NO: 5, VL SEQ ID NO: 6 (antibody, V domains shown)
# VH: QQQLVESGGRLVTPGTPLTLTYTVSGFSLSDYHMSWVRQAPGKGLQWIATISNRGNTYYASWAKGRFTISKTSTTVDLKITSPTTEDTATYFCARDNVHGDGVLVFYLWGPGTLVTVSS
# VL: AELVMTQTPASVSEPVGGTVTIKCQASQSIGTNLAWYQQKPGQPPKRLIYKASTLASGVSSRFKGSGSGTEFTLTISDLECADAATYYCQGYYSGDSNAFGGGTEVVVK
# modifications: 3A3 antibody, Heavy chain; 3A3 antibody, Light chain
# What was measured:
# [1] = tested on: MCF7-F (fulvestrant-resistant MCF7) breast cancer cells; experiment: MTT cytotoxicity assay; conditions: 1.56-200 nM, 72 h
# Description: (§1) The cells were seeded at a density of 5000 cells/well in 96-well plates. Approximately 24 h after cell seeding, the cells were treated with varying doses (1.56, 3.125, 6.25, 12.5, 25, 50, 100 and 200 nM) of MMAE, 1A3 and 1A3-VC-PAB-MMAE. Untreated cells were used as control. After incubating for 72 h, the medium was aspirated and 50 μL of serum-free media and 50 μL of MTT solution (5 mg/mL solution in PBS) was added into each well; the cells were then incubated for 3 h at 37° C. The formazan crystals formed were dissolved with 4 mM HCl, 0.1% NP40 in isopropanol. The absorbance was measured at 590 nm using VersaMax Microplate Reader (Molecular Devices LLC, San Jose, California, USA). The assays were performed in triplicate.
# [2] = tested on: MCF7 breast cancer cells; experiment: MTT cytotoxicity assay; conditions: MCF7, 1.56-200 nM, 72 h
# Description: as §1
# [3] = tested on: MCF-7 cells; experiment: Tubulin staining (microtubule integrity); assay type: cell-based, human; conditions: 48 h treatment
# Description: FIGS. 4A-4E. In vitro 1A3-MMAE cytotoxicity in MCF-7 (FIG. 4A) and MCF-7F (FIG. 4B) cells measured by MTT assay after treatment with 1A3-MMAE, 1A3 or MMAE. FIG. 4C: Clonogenic growth of MCF-7 or MCF-7F cells after exposure to 1A3-MMAE and replating. FIG. 4D: The quantification of clonogenic growth assays in FIG. 4C. (FIG. 4E). Tubulin staining of MCF-7 cells after 48 h treatment with MMAE, 1A3, 1A3-MMAE (40× magnification).
# [4] = molecular target: T1, peptide representing the neo-epitope of the ADAM17-cleavage product of human AREG (Homo sapiens, UniProt P15514); experiment: ELISA of rabbit IgG candidates against peptides representing cleaved and full length AREG; assay type: binding; conditions: IgG format; cleaved vs uncleaved AREG peptide
# T1 construct: host or cells: synthetic peptide
# Description: FIGS. 1A-1C. Isolation of antibodies that selectively recognize a peptide representing cleaved AREG. FIG. 1A: Schematic representation of the AREG cleavage and EGFR activation process, one consequence of which is the internalization of the small transmembrane fragment that remains cell-associated after TACE/ADAM17-mediated cleavage. FIG. 1B: Schematic representation of phage panning strategy using a peptide representing the cleaved AREG neo-epitope adhered to the well and a peptide representing the non-cleaved AREG region in the liquid phase.
# Rabbit monoclonal IgG antibodies specific to cleaved-AREG were identified in contracted screening (Oak Biosciences Inc., Sunnyvale, CA, USA) using a recombinant Rabbit naïve phage display library (scFv format, VK-linker-VH) screening platform after four rounds of panning and ELISA validation. For panning, phage was selected against a peptide modeling the ADAM17-cleaved cell-associated epitope of AREG,^12 represented by the N-terminal region of THSMIDSSLSKI (SEQ ID NO: 2), and counter-selected against a peptide spanning this region (SMKTHSMIDSSLSKIAC; SEQ ID NO: 9), representing uncleaved AREG. […] GMF-1A3, referred to hereafter as simply “1A3”, was the antibody chosen for further characterization in this Example.
# [5] = tested on: MCF7 cells; experiment: Internalization and intracellular localization of 1A3-pHrodo, live-cell imaging; assay type: cell-based, human
# Description: In order to study internalization, 1A3 was conjugated with pHrodo iFL Red dye using pHrodo iFL Red Microscale Protein Labeling Kit (P36014, Thermo Fisher Scientific). MCF7 cells were seeded in 12 mm Nunc Glass Bottom Dish, at a density of 1 ×10^5 cells/dish. After allowing the cells to attach overnight, the cells were incubated for 60 min with […] Hoechst dye for nuclei staining and LysoTracker® Green DND-26 (Thermo Fisher Scientific) for lysosomal labeling. The cells were then incubated with 1A3-pHrodo (2 μg/mL) for 20 min at 37° C. After washing the wells with PBS, the cells were supplemented with 1× live-cell imaging solution (Molecular probes, Thermo Fisher Scientific). Fluorescence images were acquired at 30 min intervals for 2.5 h with the Olympus 1×71 inverted fluorescence microscope (Olympus, Shinjuku, Tokyo, Japan). TAPI-2 (20 μM)—pre-treatment was performed overnight, with DMSO serving as a control.
molecule,measurement,setting,value
"CC[C@H](C)[C@@H]([C@@H](CC(=O)N1CCC[C@H]1[C@H](OC)[C@@H](C)C(=O)N[C@H](C)[C@@H](O)c1ccccc1)OC)N(C)C(=O)[C@@H](NC(=O)[C@@H](NC)C(C)C)C(C)C [MMAE, monomethyl auristatin E, reference compound] (H-[NMeV]V[Dil][Dolaproine]-X1)",cytotoxicity by MTT assay,[1],potently killed the cells
same,cytotoxicity by MTT assay,[2],potently killed the cells
same,tubulin disruption (microtubule integrity),[3],exhibited tubulin disruption
B1,selectivity for cleaved AREG by ELISA,[4],selectivity for cleaved AREG was confirmed
B2,time of treatment after which red fluorescence (presence in acidic endosomes) was evident,[5]; 1A3-pHrodo 2 μg/mL,30 min
same,fluorescence development after pretreatment with ADAM17 inhibitor TAPI-2,[5]; TAPI-2 20 μM overnight pre-treatment,prevented the development of fluorescence
B3,selectivity for cleaved AREG by ELISA,[4],selectivity for cleaved AREG was confirmed
